# Results published in paper PMC7949148.
# What was measured:
# [1] = target: Trypanosoma brucei FoF1–ATP synthase complex (Trypanosoma brucei (endogenous in PCF and BSF cells)); experiment: native gel or EMSA; blue native electrophoresis of DDM-lysed (2% PCF, 4% BSF) mitochondria, 3 to 12% native gradient gel, 4 °C; Western blot with antibodies against subunit β and Tb2; cells noninduced or with Tb1 or OSCP silenced or ablated
# [2] = target: Trypanosoma brucei FoF1–ATP synthase complex (Trypanosoma brucei (endogenous in PCF and BSF cells)); experiment: native gel or EMSA; high-resolution clear native electrophoresis of digitonin-lysed (4 mg/mg protein) crude mitochondrial vesicles from PCF and BSF parasites, 3 to 12% native gradient gel, 4 °C; Western blot with antibodies against p18 and Tb1
substance,measurement,setting,value
Trypanosoma brucei FoF1–ATP synthase complex,stoichiometry N,[1],2
same,stoichiometry N,[2],2
